Results reported in patent publication US20110191903A1, “ENGINEERING PLANT RESISTANCE TO DISEASES CAUSED BY PATHOGENS” (Pioneer Hi-Bred International, Inc., priority 2009, published 2011).

Legend:
Format in all cases: biochemical, Ceriporiopsis subvermispora
[1] = substrate: O=C(O)C(=O)O; assay: Oxalate oxidase kinetics, coupled horse radish peroxidase assay, ALT6 (3-21)
Description: (§1) The E. coli expression system was based on the published protocol of Escutia et al. Escutia et al., Cloning and sequencing of two Ceriporiopsis subvermispora bicupin oxalate oxidase allelic isoforms: implications for the reaction specificity of oxalate oxidases and decarboxylases. (2005). The coding sequence for the mature OXOX enzyme was inserted in E. coli expression vector pET32 (Invitrogen) to include a 6× histidine tag at the C-terminus. The resulting expression plasmid was transformed into E. coli strain BL21Star pLysS (Invitrogen).
(§2) E. coli cultures were grown at 37° C. At optical density 0.4, arabinose was added to a concentration or 0.4%. After another hour of growth at 37° C., MnCl2 was added to 5 mM and IPTG to 1 mM. Cultures were then grown at 25° C. for 16 hours. Cells were harvested by centrifugation at 4000 rpm for 10 min. The supernatant was discarded and cell pellets were kept at −80° C. for at least one hour. Pellets were resuspended in total 40 ml of lysis buffer with 50 mM phosphate buffer pH7, 2 mg/ml protease inhibitor (sigma P-8465), 100 mM KCL, 1/1000 lysozyme, 1/2000 endonuclease, and incubated at 37° C. with shaking for one hour, followed by sonication. Cellular debris was removed by centrifugation and the clarified supernatant was poured into a new tube. Nickel resin (Qiagen) was added. After a short period of incubation, the slurry was poured onto a column and washed with buffer. Purified OXOX protein was eluted from the resin in 50 mM succinate pH 5, 100 mM KCl. The E. coli expression procedure was scalable allowing large scale protein production for kinetic analysis as well as small scale production for high throughput screening of libraries.
(§3) Oxalate oxidase enzymatic activity was determined in a coupled reaction. Oxalate oxidase converts oxalic acid to carbon dioxide and hydrogen peroxide. In the presence of horse radish peroxidase, hydrogen peroxide reacts with 3-methyl-2-benzothiazolinone hydrazone (MBTH) and N,N-dimethylaniline (DMA) to form indamine dye, which can be detected spectrophotmetrically or colorimetrically as described by Laker, M. F., Hoffman, A. F., and Meeuse, J. D. (1980) Clinical Chemistry 26, 827-830. The coupled reaction was used for characterization of oxalate oxidase kinetic properties as well as in a screening procedure to identify oxalate oxidase variants with improved enzymatic properties.
(§4) DNA shuffling was performed as described elsewhere herein. A polymerase chain reaction product corresponding to the OXOX-C coding sequence was fragmented by limited nuclease treatment. Synthetic oligonucleotides encoding sequence diversity from oxalate decarboxylase sequences found in public databases were added. A polymerase chain reaction procedure was performed on the mixture to yield a library of full length OXOX-C coding sequences with additional diversity incorporated. The resulting library was inserted in expression vector pET32, E. coli cells were transformed and protein was expressed, as described in Example 2. A tiered screening strategy was devised based on the OXOX protein expression and enzymatic activity determination procedures described in Examples 2 and 3, respectively. A high throughput screening process based on colorimetric determination of OXOX activity was utilized to identify individual E. coli strains harboring active OXOX variants. These OXOX-active strains were reassayed using quantitative spectrophotometric determination of OXOX activity. […] Three rounds of this iterative screening and selection procedure were completed, and OXOX variants with up to 8-fold improved activity were identified
(§5) More modest improvements in Km and Kcat were observed under lower pH conditions. Coupled reaction was preformed as described in Example 3. Enzyme kinetic parameters were determined by standard methods as described in Segel (1976) Biochemical calculations, 2nd Edition. John Wiley & Sons, London, New York, Sydney, Toronto.

[2] = substrate: O=C(O)C(=O)O; assay: Oxalate oxidase kinetics, coupled horse radish peroxidase assay, ALT1 (WT-Q7)
Description: as §1, §2, §3
(§6) Three potential glycosylations sites with the consensus amino acid sequence N—X—(S/T) were identified in OXOX-C at amino acid positions 60, 384 and 430 in SEQ ID NO:27. Site-directed mutagenesis was used to alter these sites (Quickchange, Stratagene). Every possible amino acid substitution was generated at the third amino acid position of each potential glyosylation site. The resulting variants were screened for activity using the enzymatic assay described in Example 3. […] These variants correspond to sequences OXOX-C-MOD1-ALT1 (SEQ ID NO:23) and OXOX-C-MOD1-ALT2 (SEQ ID NO:24).
as §5

[3] = substrate: O=C(O)C(=O)O; assay: Oxalate oxidase kinetics, coupled horse radish peroxidase assay, ALT4 (1-23)
Description: as §1, §2, §3, §4, §5

[4] = substrate: O=C(O)C(=O)O; assay: Oxalate oxidase kinetics, coupled horse radish peroxidase assay, ALT5 (2-6)
Description: as §1, §2, §3, §4, §5

[5] = substrate: O=C(O)C(=O)O; assay: Oxalate oxidase kinetics, coupled horse radish peroxidase assay, ALT2 (glyc-)
Description: as §1, §2, §3, §6, §5

[6] = substrate: O=C(O)C(=O)O; assay: Oxalate oxidase kinetics, coupled horse radish peroxidase assay, ALT3 (1-8)
Description: as §1, §2, §3, §4, §5

B1: Ceriporiopsis subvermispora oxalate oxidase OXOX-C variant ALT6 (3-21), L23P/I60E/T63Q/I99V/L177M/L196I/F259Y/I278V/F339Y/F387Y/F396Y relative to OXOX-C-ALT1 … (protein)
chain: RPTENGPQIVIANNAGTYLPVPRGSGTKSSSAADATQTVPFASDDPNPRLWDIDTKNLEKVQPERGQLGAKILGPDNLPIDLQNADTLAPPTTDSGSVPNPKWPFALSHNTLYSGGWVRIQNDEVMPIAKAMAGVNMRLEAGAIRELHWHNTPEWAYILKGTTQITAVDQNGRNYMANVGPGDLWYFPEGMPHSIQGTDANNEGSEFLLIFPDGTFDSSNQFMITDWLAHTPKDVIAKNFGVDISEFDRLPSHDLYIYPGVAPPLDAKAPEDPQGTVPLPYSFEFSKVKPTQYAGGTVKIADTRTFPIAKTISVAEVTVEPGAMRELHWHPTEDEWTYFIEGQARVTIFAGQSNAQTYDYQGGDIAYIPTAWGHYVENSGNTQLRYLEIFNSPLYEDVSLAQWIANTPPAIVKATLQLSDEVINTLNKQKAFVVG
[1]; other: pH 3.8, pH 3.8
  Km: 120 µM
  kcat: 2.79 s⁻¹
[1]; other: pH 4.8, pH 4.8
  Km: 550 µM
  kcat: 2.61 s⁻¹
[1]; other: pH 5.8, pH 5.8
  Km: 1460 µM
  kcat: 1.72 s⁻¹

B2: Ceriporiopsis subvermispora oxalate oxidase OXOX-C variant ALT1 (WT-Q7), glycosylation minus, T60I/T384Q/S430Q relative to SEQ ID NO: 37, SEQ ID NO: 23 … (protein)
chain: RPTENGPQIVIANNAGTYLPVLRGSGTKSSSAADATQTVPFASDDPNPRLWDIDTKNLIKVTPERGQLGAKILGPDNLPIDLQNADTLAPPTTDSGSIPNPKWPFALSHNTLYSGGWVRIQNDEVMPIAKAMAGVNMRLEAGAIRELHWHNTPEWAYILKGTTQITAVDQNGRNYLANVGPGDLWYFPEGMPHSLQGTDANNEGSEFLLIFPDGTFDSSNQFMITDWLAHTPKDVIAKNFGVDISEFDRLPSHDLYIFPGVAPPLDAKAPEDPQGTIPLPYSFEFSKVKPTQYAGGTVKIADTRTFPIAKTISVAEVTVEPGAMRELHWHPTEDEWTFFIEGQARVTIFAGQSNAQTYDYQGGDIAYIPTAWGHYVENSGNTQLRFLEIFNSPLFEDVSLAQWIANTPPAIVKATLQLSDEVINTLNKQKAFVVG
notes: glycosylation sites removed
[2]; other: pH 3.8, pH 3.8
  Km: 330 µM
  kcat: 5.00 s⁻¹
[2]; other: pH 4.8, pH 4.8
  Km: 1210 µM
  kcat: 2.70 s⁻¹
[2]; other: pH 5.8, pH 5.8
  Km: 6010 µM
  kcat: 0.85 s⁻¹

B3: Ceriporiopsis subvermispora oxalate oxidase OXOX-C variant ALT4 (1-23), W118Y/I166V/F259Y/I278V/Y282F/F339Y/F396Y relative to OXOX-C-ALT1 (SEQ ID NO: 35), SEQ … (protein)
chain: RPTENGPQIVIANNAGTYLPVLRGSGTKSSSAADATQTVPFASDDPNPRLWDIDTKNLIKVTPERGQLGAKILGPDNLPIDLQNADTLAPPTTDSGSIPNPKWPFALSHNTLYSGGYVRIQNDEVMPIAKAMAGVNMRLEAGAIRELHWHNTPEWAYILKGTTQVTAVDQNGRNYLANVGPGDLWYFPEGMPHSLQGTDANNEGSEFLLIFPDGTFDSSNQFMITDWLAHTPKDVIAKNFGVDISEFDRLPSHDLYIYPGVAPPLDAKAPEDPQGTVPLPFSFEFSKVKPTQYAGGTVKIADTRTFPIAKTISVAEVTVEPGAMRELHWHPTEDEWTYFIEGQARVTIFAGQSNAQTYDYQGGDIAYIPTAWGHYVENSGNTQLRFLEIFNSPLYEDVSLAQWIANTPPAIVKATLQLSDEVINTLNKQKAFVVG
[3]; other: pH 3.8, pH 3.8
  Km: 350 µM
  kcat: 4.08 s⁻¹
[3]; other: pH 4.8, pH 4.8
  Km: 1320 µM
  kcat: 2.70 s⁻¹
[3]; other: pH 5.8, pH 5.8
  Km: 5510 µM
  kcat: 0.85 s⁻¹

B4: Ceriporiopsis subvermispora oxalate oxidase OXOX-C variant ALT5 (2-6), I54M/I60E/I99V/W118Y/F259Y/I278V/F339Y/Y359F/F396Y relative to OXOX-C-ALT1 (SEQ ID NO: … (protein)
chain: RPTENGPQIVIANNAGTYLPVLRGSGTKSSSAADATQTVPFASDDPNPRLWDMDTKNLEKVTPERGQLGAKILGPDNLPIDLQNADTLAPPTTDSGSVPNPKWPFALSHNTLYSGGYVRIQNDEVMPIAKAMAGVNMRLEAGAIRELHWHNTPEWAYILKGTTQITAVDQNGRNYLANVGPGDLWYFPEGMPHSLQGTDANNEGSEFLLIFPDGTFDSSNQFMITDWLAHTPKDVIAKNFGVDISEFDRLPSHDLYIYPGVAPPLDAKAPEDPQGTVPLPYSFEFSKVKPTQYAGGTVKIADTRTFPIAKTISVAEVTVEPGAMRELHWHPTEDEWTYFIEGQARVTIFAGQSNAQTFDYQGGDIAYIPTAWGHYVENSGNTQLRFLEIFNSPLYEDVSLAQWIANTPPAIVKATLQLSDEVINTLNKQKAFVVG
[4]; other: pH 3.8, pH 3.8
  Km: 460 µM
  kcat: 10.01 s⁻¹
[4]; other: pH 4.8, pH 4.8
  Km: 2320 µM
  kcat: 7.06 s⁻¹
[4]; other: pH 5.8, pH 5.8
  Km: 8910 µM
  kcat: 2.44 s⁻¹

B5: Ceriporiopsis subvermispora oxalate oxidase OXOX-C variant ALT2 (glyc-), glycosylation minus, T60R/T384V/S430D relative to SEQ ID NO: 37, SEQ ID NO: 24 … (protein)
chain: RPTENGPQIVIANNAGTYLPVLRGSGTKSSSAADATQTVPFASDDPNPRLWDIDTKNLRKVTPERGQLGAKILGPDNLPIDLQNADTLAPPTTDSGSIPNPKWPFALSHNTLYSGGWVRIQNDEVMPIAKAMAGVNMRLEAGAIRELHWHNTPEWAYILKGTTQITAVDQNGRNYLANVGPGDLWYFPEGMPHSLQGTDANNEGSEFLLIFPDGTFDSSNQFMITDWLAHTPKDVIAKNFGVDISEFDRLPSHDLYIFPGVAPPLDAKAPEDPQGTIPLPYSFEFSKVKPTQYAGGTVKIADTRTFPIAKTISVAEVTVEPGAMRELHWHPTEDEWTFFIEGQARVTIFAGQSNAQTYDYQGGDIAYIPTAWGHYVENSGNTVLRFLEIFNSPLFEDVSLAQWIANTPPAIVKATLQLSDEVINTLNKDKAFVVG
notes: glycosylation sites removed
[5]; other: pH 3.8, pH 3.8
  Km: 280 µM
  kcat: 5.60 s⁻¹
[5]; other: pH 4.8, pH 4.8
  Km: 1240 µM
  kcat: 2.99 s⁻¹
[5]; other: pH 5.8, pH 5.8
  Km: 5900 µM
  kcat: 0.91 s⁻¹

B6: Ceriporiopsis subvermispora oxalate oxidase OXOX-C variant ALT3 (1-8), I54M/I99V/W118Y/F259Y/I278V/F339Y/F396Y relative to OXOX-C-ALT1 (SEQ ID NO: 35), SEQ ID … (protein)
chain: RPTENGPQIVIANNAGTYLPVLRGSGTKSSSAADATQTVPFASDDPNPRLWDMDTKNLIKVTPERGQLGAKILGPDNLPIDLQNADTLAPPTTDSGSVPNPKWPFALSHNTLYSGGYVRIQNDEVMPIAKAMAGVNMRLEAGAIRELHWHNTPEWAYILKGTTQITAVDQNGRNYLANVGPGDLWYFPEGMPHSLQGTDANNEGSEFLLIFPDGTFDSSNQFMITDWLAHTPKDVIAKNFGVDISEFDRLPSHDLYIYPGVAPPLDAKAPEDPQGTVPLPYSFEFSKVKPTQYAGGTVKIADTRTFPIAKTISVAEVTVEPGAMRELHWHPTEDEWTYFIEGQARVTIFAGQSNAQTYDYQGGDIAYIPTAWGHYVENSGNTQLRFLEIFNSPLYEDVSLAQWIANTPPAIVKATLQLSDEVINTLNKQKAFVVG
[6]; other: pH 3.8, pH 3.8
  Km: 310 µM
  kcat: 4.69 s⁻¹
[6]; other: pH 4.8, pH 4.8
  Km: 1700 µM
  kcat: 3.21 s⁻¹
[6]; other: pH 5.8, pH 5.8
  Km: 8380 µM
  kcat: 1.36 s⁻¹
